Laboratory results published in patent publication US20200385438A1 (Stanford University, published 2020).
Substitutions are numbered along the chain they refer to.

Legend:
[1] = biological target: T1, biotinylated recombinant BH3-tagged hIL-2 (human, UniProt P60568 21-153, biotinylated with BirA enzyme (on the tag)); test: SPR (Biacore T100), biotinylated hIL-2 immobilised on an SA chip, soluble CD25 flowed over
T1 construct: Secreted by Hi5 insect cells and immobilized on an SA sensor chip for SPR; also called biotinylated human IL-2; biotinylated IL-2; not shown: BH3 tag
Excerpt: (§1) FIG. 4A-4B—Sequences and affinities of high affinity CD25 variants. DNA encoding high affinity variants was extracted after clone screens by yeast plasmid minipreps. Sequences for hCD25 (FIG. 4A) and mCD25 (FIG. 4B) clones are aligned with wild-type (WT) CD25. Residues are the same as WT except as noted, and the EAV sequence is not aligned to WT mCD25 due to differences between species. Consensus mutations for hCD25 are highlighted in blue, and deletions are marked by dashes. Affinity measurements for each clone were determined by surface plasmon resonance.
(§2) Surface plasmon resonance (FIG. 4). Sequences of high-affinity CD25 identified from the clone screens were determined by yeast miniprep (Zymo Research), and cloned into pAcBN vectors for expression in Hi5 cells. Soluble high-affinity CD25 proteins were purified by FPLC. Affinity was measured by surface plasmon resonance (Biacore T100), with biotinylated mouse or human IL-2 immobilized on a SA sensor chip (GE Healthcare). CD25 variants were flowed over the chip and the chip was regenerated between runs.

[2] = biological target: T2, biotinylated recombinant BH3-tagged mIL-2 (mouse, UniProt P04351 21-169, biotinylated with BirA enzyme (on the tag)); test: SPR (Biacore T100), biotinylated mIL-2 immobilised on an SA chip, soluble CD25 flowed over
T2 construct: Secreted by Hi5 insect cells and immobilized on an SA sensor chip for SPR; also called biotinylated mouse IL-2; biotinylated IL-2; not shown: BH3 tag
T2 sequence (looked up): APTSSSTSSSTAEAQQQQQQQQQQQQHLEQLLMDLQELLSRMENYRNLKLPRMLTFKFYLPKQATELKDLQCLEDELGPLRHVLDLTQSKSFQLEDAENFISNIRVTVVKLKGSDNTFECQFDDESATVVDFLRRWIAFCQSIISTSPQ
Excerpt: as §1, §2

T1 sequence (P60568 21-153): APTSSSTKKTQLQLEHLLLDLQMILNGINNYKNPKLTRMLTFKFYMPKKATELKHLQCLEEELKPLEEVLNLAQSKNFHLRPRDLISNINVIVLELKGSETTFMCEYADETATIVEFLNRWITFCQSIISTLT

B1: WT (receptor)
CD25 (IL-2Rα) chain: ELCDDDPPEIPHATFKAMAYKEGTMLNCECKRGFRRIKSGSLYMLCTGNSSHSSWDNQCQCTSSATRNTTKQVTPQPEEQKERKTTEMQSPMQPVDQASLPGHCREPPPWENEATERIYHFVVGQMVYYQCVQGYRALHRGPAESVCKMTHGKTRWTQPQLICTGEMETSQFPGEEKPQASPEGRPESETSCLVTTTDFQIQTEMAATMETSIFTTE
notes: also called WT hCD25; wild-type human CD25
- Kd [1]: 2 nM

B2: F5 (receptor)
CD25 (IL-2Rα) chain: B1 CD25 (IL-2Rα) chain with M25L, N27V, L42A, I118N, H120M, K153G
notes: also called F5 hCD25
- Kd [1]: 0.086 nM

B3: E8 (receptor)
CD25 (IL-2Rα) chain: B1 CD25 (IL-2Rα) chain with L2Q, M25V, N27Y, L42A, I118R, H120W
notes: also called E8 hCD25
- Kd [1]: 0.045 nM

B4: B5 (receptor)
CD25 (IL-2Rα) chain: B1 CD25 (IL-2Rα) chain with M25I, N27V, E29D, L42A, I118R, H120W, K153Q
notes: also called B5 hCD25
- Kd [1]: 0.046 nM

B5: WT (receptor)
CD25 (IL-2Rα) chain: ELCLYDPPEVPNATFKALSYKNGTILNCECKRGFRRLKELVYMRCLGNSWSSNCQCTSNSHDKSRKQVTAQLEHQKEQQTTTDMQKPTQSMHQENLTGHCREPPPWKHEDSKRIYHFVEGQSVHYECIPGYKALQRGPAISICKMKCGKTGWTQPQLTCVDEREHHRFLASEESQGSRNSSPESETSCPITTTDFPQPTETTAMTETFVLTME
notes: also called WT mCD25; wild-type mouse CD25
- Kd [2]: 6.9 nM

B6: B4 (receptor)
CD25 (IL-2Rα) chain: B5 CD25 (IL-2Rα) chain with N27E, E29R, V41W, Y42I, M43V, N59T, I114E, H116T
notes: also called B4 mCD25
- Kd [2]: 0.46 nM
